Numbered stars: 1 amine (or outer) side, 2 acyl side, 3 side chain; on linkers, the order of the positions; unused ones are H or OH. Bridge positions count the residues as written; N and C are the ends. Side chains are listed from the residue outwards. Ends that are not written are not given here. * marks the point of attachment. C20 diacid = O=C(O)CCCCCCCCCCCCCCCCCCC(=O)*; γGlu = O=C(O)[C@H](CCC(=O)[*:2])N[*:1]; AEEA = NCCOCCOCC(=O)O
T1: rat calcitonin receptor (rat, UniProt P32214 25-516)
T1 construct: whole, on cells; Membranes of BHK tk'ts 13 cells transiently transfected with the rat calcitonin receptor; also called rCTR; rat calcitonin (a) receptor
T1 sequence (looked up): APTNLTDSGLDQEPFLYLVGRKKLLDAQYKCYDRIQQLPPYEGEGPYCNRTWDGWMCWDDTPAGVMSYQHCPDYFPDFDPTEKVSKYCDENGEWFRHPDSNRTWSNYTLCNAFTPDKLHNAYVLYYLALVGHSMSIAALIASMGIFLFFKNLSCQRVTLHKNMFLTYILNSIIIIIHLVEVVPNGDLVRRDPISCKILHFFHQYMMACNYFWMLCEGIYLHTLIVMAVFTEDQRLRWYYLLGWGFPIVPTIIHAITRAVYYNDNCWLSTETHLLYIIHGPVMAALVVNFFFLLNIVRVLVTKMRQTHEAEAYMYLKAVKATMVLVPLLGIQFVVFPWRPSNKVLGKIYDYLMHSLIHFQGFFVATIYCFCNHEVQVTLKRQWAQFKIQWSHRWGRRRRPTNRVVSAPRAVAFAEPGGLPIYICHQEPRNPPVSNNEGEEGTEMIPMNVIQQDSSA

T2: rat amylin receptor (rat calcitonin receptor + rat RAMP 3) (rat, UniProt P32214 25-516; Q9JJ73 23-147)
T2 construct: whole, on cells; Membranes of BHK tk'ts 13 cells transiently transfected with the rat calcitonin receptor and rat RAMP 3; also called rAmylin-R; rat amylin 3(a) receptor
T2 sequence (looked up) 1: T1 sequence (looked up)
T2 sequence (looked up) 2: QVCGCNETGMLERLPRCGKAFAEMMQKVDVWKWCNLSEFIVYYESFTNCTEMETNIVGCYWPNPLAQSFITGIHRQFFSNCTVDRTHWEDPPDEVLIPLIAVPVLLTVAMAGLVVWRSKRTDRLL

T3: human calcitonin receptor (human, UniProt P30988 25-474)
T3 construct: whole, on cells; Membranes of a BHK tk'ts 13 cell line stably transfected with the human calcitonin receptor; also called hCTR; hCT
T3 sequence (looked up): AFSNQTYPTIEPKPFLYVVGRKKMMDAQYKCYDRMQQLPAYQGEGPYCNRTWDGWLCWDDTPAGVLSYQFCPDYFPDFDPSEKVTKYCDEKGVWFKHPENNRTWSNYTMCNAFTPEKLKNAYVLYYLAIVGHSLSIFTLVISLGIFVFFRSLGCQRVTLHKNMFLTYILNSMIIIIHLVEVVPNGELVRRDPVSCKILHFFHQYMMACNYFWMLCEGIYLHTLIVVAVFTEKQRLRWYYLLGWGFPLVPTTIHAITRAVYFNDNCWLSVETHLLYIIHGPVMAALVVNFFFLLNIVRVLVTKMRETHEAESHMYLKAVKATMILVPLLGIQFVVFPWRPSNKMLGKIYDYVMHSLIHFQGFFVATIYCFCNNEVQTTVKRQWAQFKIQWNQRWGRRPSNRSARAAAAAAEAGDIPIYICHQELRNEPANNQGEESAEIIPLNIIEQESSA

B1: N^α1-[(4S)-4-carboxy-4-(19-carboxynonadecanoylamino)butanoyl]-[His14,Arg17,Pro21,Pro27,Glu35]-h-amylin (peptide)
peptide: {C20 diacid-γGlu}-KCNTATCATQRLAHFLRHSSPNFGAIPSSTNVGSETY-NH2
modifications: disulfide 2-7
SMILES: CC[C@H](C)[C@H](NC(=O)[C@H](C)NC(=O)CNC(=O)[C@H](Cc1ccccc1)NC(=O)[C@H](CC(N)=O)NC(=O)[C@@H]1CCCN1C(=O)[C@H](CO)NC(=O)[C@H](CO)NC(=O)[C@H](Cc1c[nH]cn1)NC(=O)[C@H](CCCNC(=N)N)NC(=O)[C@H](CC(C)C)NC(=O)[C@H](Cc1ccccc1)NC(=O)[C@H](Cc1c[nH]cn1)NC(=O)[C@H](C)NC(=O)[C@H](CC(C)C)NC(=O)[C@H](CCCNC(=N)N)NC(=O)[C@H](CCC(N)=O)NC(=O)[C@@H](NC(=O)[C@H](C)NC(=O)[C@@H]1CSSC[C@H](NC(=O)[C@H](CCCCN)NC(=O)CC[C@H](NC(=O)CCCCCCCCCCCCCCCCCCC(=O)O)C(=O)O)C(=O)N[C@@H](CC(N)=O)C(=O)N[C@@H]([C@@H](C)O)C(=O)N[C@@H](C)C(=O)N[C@@H]([C@@H](C)O)C(=O)N1)[C@@H](C)O)C(=O)N1CCC[C@H]1C(=O)N[C@@H](CO)C(=O)N[C@@H](CO)C(=O)N[C@H](C(=O)N[C@@H](CC(N)=O)C(=O)N[C@H](C(=O)NCC(=O)N[C@@H](CO)C(=O)N[C@@H](CCC(=O)O)C(=O)N[C@H](C(=O)N[C@@H](Cc1ccc(O)cc1)C(N)=O)[C@@H](C)O)C(C)C)[C@@H](C)O
notes: modifications are with respect to human amylin; also called compound 30
B2: N^ε1-[2-[2-[2-[[2-[2-[2-[[(4S)-4-carboxy-4-(19-carboxynonadecanoylamino)butanoyl]amino]ethoxy]ethoxy]acetyl]amino]ethoxy]ethoxy]acetyl]-[Arg17,Pro21,Pro27,Glu35 … (peptide)
peptide: K([AEEA-AEEA-γGlu-C20 diacid])CNTATCATQRLANFLRHSSPNFGAIPSSTNVGSETY-NH2
modifications: disulfide 2-7; N-terminus assumed
SMILES: CC[C@H](C)[C@H](NC(=O)[C@H](C)NC(=O)CNC(=O)[C@H](Cc1ccccc1)NC(=O)[C@H](CC(N)=O)NC(=O)[C@@H]1CCCN1C(=O)[C@H](CO)NC(=O)[C@H](CO)NC(=O)[C@H](Cc1c[nH]cn1)NC(=O)[C@H](CCCNC(=N)N)NC(=O)[C@H](CC(C)C)NC(=O)[C@H](Cc1ccccc1)NC(=O)[C@H](CC(N)=O)NC(=O)[C@H](C)NC(=O)[C@H](CC(C)C)NC(=O)[C@H](CCCNC(=N)N)NC(=O)[C@H](CCC(N)=O)NC(=O)[C@@H](NC(=O)[C@H](C)NC(=O)[C@@H]1CSSC[C@H](NC(=O)[C@@H](N)CCCCNC(=O)COCCOCCNC(=O)COCCOCCNC(=O)CC[C@H](NC(=O)CCCCCCCCCCCCCCCCCCC(=O)O)C(=O)O)C(=O)N[C@@H](CC(N)=O)C(=O)N[C@@H]([C@@H](C)O)C(=O)N[C@@H](C)C(=O)N[C@@H]([C@@H](C)O)C(=O)N1)[C@@H](C)O)C(=O)N1CCC[C@H]1C(=O)N[C@@H](CO)C(=O)N[C@@H](CO)C(=O)N[C@H](C(=O)N[C@@H](CC(N)=O)C(=O)N[C@H](C(=O)NCC(=O)N[C@@H](CO)C(=O)N[C@@H](CCC(=O)O)C(=O)N[C@H](C(=O)N[C@@H](Cc1ccc(O)cc1)C(N)=O)[C@@H](C)O)C(C)C)[C@@H](C)O
notes: modifications are with respect to human amylin; also called compound 25
B3: N^ε1-[2-[2-[2-[[(4S)-4-carboxy-4-(19-carboxynonadecanoylamino)butanoyl]amino]ethoxy]ethoxy]acetyl]-[Arg17,Pro21,Pro27,Pro31]-h-amylin (peptide)
peptide: K([AEEA-γGlu-C20 diacid])CNTATCATQRLANFLRHSSPNFGAIPSSTPVGSNTY-NH2
modifications: disulfide 2-7; N-terminus assumed
SMILES: CC[C@H](C)[C@H](NC(=O)[C@H](C)NC(=O)CNC(=O)[C@H](Cc1ccccc1)NC(=O)[C@H](CC(N)=O)NC(=O)[C@@H]1CCCN1C(=O)[C@H](CO)NC(=O)[C@H](CO)NC(=O)[C@H](Cc1c[nH]cn1)NC(=O)[C@H](CCCNC(=N)N)NC(=O)[C@H](CC(C)C)NC(=O)[C@H](Cc1ccccc1)NC(=O)[C@H](CC(N)=O)NC(=O)[C@H](C)NC(=O)[C@H](CC(C)C)NC(=O)[C@H](CCCNC(=N)N)NC(=O)[C@H](CCC(N)=O)NC(=O)[C@@H](NC(=O)[C@H](C)NC(=O)[C@@H]1CSSC[C@H](NC(=O)[C@@H](N)CCCCNC(=O)COCCOCCNC(=O)CC[C@H](NC(=O)CCCCCCCCCCCCCCCCCCC(=O)O)C(=O)O)C(=O)N[C@@H](CC(N)=O)C(=O)N[C@@H]([C@@H](C)O)C(=O)N[C@@H](C)C(=O)N[C@@H]([C@@H](C)O)C(=O)N1)[C@@H](C)O)C(=O)N1CCC[C@H]1C(=O)N[C@@H](CO)C(=O)N[C@@H](CO)C(=O)N[C@H](C(=O)N1CCC[C@H]1C(=O)N[C@H](C(=O)NCC(=O)N[C@@H](CO)C(=O)N[C@@H](CC(N)=O)C(=O)N[C@H](C(=O)N[C@@H](Cc1ccc(O)cc1)C(N)=O)[C@@H](C)O)C(C)C)[C@@H](C)O
notes: modifications are with respect to human amylin; also called compound 49
B4: N^α1N^α1-[(4S)-4-carboxy-4-(19-carboxynonadecanoylamino)butanoyl]-[Glu14,Arg17,Pro21,Pro27,Glu35]-h-amylin (peptide)
peptide: {C20 diacid-γGlu}-KCNTATCATQRLAEFLRHSSPNFGAIPSSTNVGSETY-NH2
modifications: disulfide 2-7
SMILES: CC[C@H](C)[C@H](NC(=O)[C@H](C)NC(=O)CNC(=O)[C@H](Cc1ccccc1)NC(=O)[C@H](CC(N)=O)NC(=O)[C@@H]1CCCN1C(=O)[C@H](CO)NC(=O)[C@H](CO)NC(=O)[C@H](Cc1c[nH]cn1)NC(=O)[C@H](CCCNC(=N)N)NC(=O)[C@H](CC(C)C)NC(=O)[C@H](Cc1ccccc1)NC(=O)[C@H](CCC(=O)O)NC(=O)[C@H](C)NC(=O)[C@H](CC(C)C)NC(=O)[C@H](CCCNC(=N)N)NC(=O)[C@H](CCC(N)=O)NC(=O)[C@@H](NC(=O)[C@H](C)NC(=O)[C@@H]1CSSC[C@H](NC(=O)[C@H](CCCCN)NC(=O)CC[C@H](NC(=O)CCCCCCCCCCCCCCCCCCC(=O)O)C(=O)O)C(=O)N[C@@H](CC(N)=O)C(=O)N[C@@H]([C@@H](C)O)C(=O)N[C@@H](C)C(=O)N[C@@H]([C@@H](C)O)C(=O)N1)[C@@H](C)O)C(=O)N1CCC[C@H]1C(=O)N[C@@H](CO)C(=O)N[C@@H](CO)C(=O)N[C@H](C(=O)N[C@@H](CC(N)=O)C(=O)N[C@H](C(=O)NCC(=O)N[C@@H](CO)C(=O)N[C@@H](CCC(=O)O)C(=O)N[C@H](C(=O)N[C@@H](Cc1ccc(O)cc1)C(N)=O)[C@@H](C)O)C(C)C)[C@@H](C)O
notes: modifications are with respect to human amylin; also called compound 22
B5: N^ε1-[2-[2-[2-[[(4S)-4-carboxy-4-(19-carboxynonadecanoylamino)butanoyl]amino]ethoxy]ethoxy]acetyl]-[Arg17,Pro21,Pro27,Glu35]-h-amylin (peptide)
peptide: K([AEEA-γGlu-C20 diacid])CNTATCATQRLANFLRHSSPNFGAIPSSTNVGSETY-NH2
modifications: disulfide 2-7; N-terminus assumed
SMILES: CC[C@H](C)[C@H](NC(=O)[C@H](C)NC(=O)CNC(=O)[C@H](Cc1ccccc1)NC(=O)[C@H](CC(N)=O)NC(=O)[C@@H]1CCCN1C(=O)[C@H](CO)NC(=O)[C@H](CO)NC(=O)[C@H](Cc1c[nH]cn1)NC(=O)[C@H](CCCNC(=N)N)NC(=O)[C@H](CC(C)C)NC(=O)[C@H](Cc1ccccc1)NC(=O)[C@H](CC(N)=O)NC(=O)[C@H](C)NC(=O)[C@H](CC(C)C)NC(=O)[C@H](CCCNC(=N)N)NC(=O)[C@H](CCC(N)=O)NC(=O)[C@@H](NC(=O)[C@H](C)NC(=O)[C@@H]1CSSC[C@H](NC(=O)[C@@H](N)CCCCNC(=O)COCCOCCNC(=O)CC[C@H](NC(=O)CCCCCCCCCCCCCCCCCCC(=O)O)C(=O)O)C(=O)N[C@@H](CC(N)=O)C(=O)N[C@@H]([C@@H](C)O)C(=O)N[C@@H](C)C(=O)N[C@@H]([C@@H](C)O)C(=O)N1)[C@@H](C)O)C(=O)N1CCC[C@H]1C(=O)N[C@@H](CO)C(=O)N[C@@H](CO)C(=O)N[C@H](C(=O)N[C@@H](CC(N)=O)C(=O)N[C@H](C(=O)NCC(=O)N[C@@H](CO)C(=O)N[C@@H](CCC(=O)O)C(=O)N[C@H](C(=O)N[C@@H](Cc1ccc(O)cc1)C(N)=O)[C@@H](C)O)C(C)C)[C@@H](C)O
notes: modifications are with respect to human amylin; also called compound 26

What follows are binders tested against T1, rat calcitonin receptor (assay: SPA competition vs 125I-calcitonin, membranes with rat CTR (Assay VIII)).

Row | IC50 | Binder
1 | 114 nM | B1
2 | 131 nM | B2
3 | 51.4 nM | B3
4 | 62.5 nM | B4
5 | 152 nM | B5

These binders were tested against T2, rat amylin receptor (rat calcitonin …) (assay: SPA competition vs 125I-rat amylin, membranes with rat CTR + rat RAMP3 (Assay VI)).

Row | IC50 | Binder
6 | 3.14 nM | B1
7 | 3.48 nM | B2
8 | 1.08 nM | B3
9 | 2.19 nM | B4
10 | 0.491 nM | B5

Each binder was assayed against T3, human calcitonin receptor (assay: IC50 at hCTR divided by IC50 at hAmylin-R (reference)).
Method in brief: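 Membranes (35 ng/μL final) + SPA beads, 50 mM Hepes pH 7.4 buffer with 1 mM CaCl2, 5 mM MgCl₂, 0.1% OA, 0.02% Tween20; 120 min, 25° C, shaking; centrifuged, counted; IC₅₀ by one-site binding competition.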

Row | Ratio hCT/hAmylin binding | Binder
11 | 23.6 | B1
12 | 56.5 | B2
13 | 10.8 | B3
14 | 12.3 | B4
15 | 47.5 | B5

The binders below were run against T1, rat calcitonin receptor (assay: IC50 at rCTR divided by IC50 at rAmylin-R (reference)).

Row | Ratio rCT/rAmylin binding | Binder
16 | 36.1 | B1
17 | 37.7 | B2
18 | 47.7 | B3
19 | 28.5 | B4
20 | 309 | B5

Reference: patent publication US20140087995A1 (published 2014)
